# Reference: article PMC9352680, “A comprehensive thermodynamic model for RNA binding by the Saccharomyces cerevisiae Pumilio protein PUF4”
# Numbering of substitutions follows the chain as printed. In names and notes the source's numbering stands.
# T1: PUF4 RNA-binding domain (Saccharomyces cerevisiae, UniProt P25339 537-888)
# T1 sequence: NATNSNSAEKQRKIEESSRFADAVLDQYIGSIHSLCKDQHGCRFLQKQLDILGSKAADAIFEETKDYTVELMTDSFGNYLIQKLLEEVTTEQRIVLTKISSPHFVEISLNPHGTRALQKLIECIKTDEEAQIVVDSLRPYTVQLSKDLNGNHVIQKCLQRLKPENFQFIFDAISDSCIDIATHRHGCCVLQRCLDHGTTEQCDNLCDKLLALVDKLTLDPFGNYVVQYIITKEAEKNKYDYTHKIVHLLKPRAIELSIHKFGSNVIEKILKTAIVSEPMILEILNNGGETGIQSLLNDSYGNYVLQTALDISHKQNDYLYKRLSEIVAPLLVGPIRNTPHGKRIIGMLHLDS
# B1: Id_ii_S2_P5E.2_K5.1_C5.2_[C-2A]_[T-1C]_H5.1_A5.1_F5.1_T5.2_[A12T] (ssRNA)
# RNA: UUUGAUUAAUAUGAUAUCGUUCUUUCUACUGUAUUAUUAUUUUCUUUCUCGAUAUCAUAUUAAUCUUU
# B2: Id_ii_S2_P5E.2_K5.1_C5.2_[T-1G]_H5.1_A5.1_F5.1_T5.2_[T11A]_[A12C] (ssRNA)
# RNA: B1 RNA with A28C, C29G, U40A, U41C
# B3: Id_ii_S2_P5E.2_K5.1_C5.2_[C-2A]_H5.1_A5.1_F5.1_T5.2_[T11A]_[A12T] (ssRNA)
# RNA: B1 RNA with C29U, U40A
# B4: Id_ii_S2_P5E.2_K5.1_C5.2_H5.1_A5.1_F5.1_T5.2_[T11G]_[A12C] (ssRNA)
# RNA: B1 RNA with A28C, C29U, U40G, U41C
# B5: Id_ii_S2_P5E.2_K5.1_C5.2_[T-1G]_H5.1_A5.1_F5.1_T5.2_[A12C] (ssRNA)
# RNA: B1 RNA with A28C, C29G, U41C
# B6: Id_ii_S2_P5E.2_K5.1_C5.2_[C-2T]_H5.1_A5.1_F5.1_T5.2_[A12C] (ssRNA)
# RNA: B1 RNA with A28U, C29U, U41C
# B7: Id_ii_S2_P5E.2_K5.1_C5.2_[C-2A]_[T-1C]_H5.1_A5.1_F5.1_T5.2_[A12G] (ssRNA)
# RNA: B1 RNA with U41G
# B8: Id_ii_S2_P5E.2_K5.1_C5.2_[T-1C]_H5.1_A5.1_F5.1_T5.2_[T11A]_[A12T] (ssRNA)
# RNA: B1 RNA with A28C, U40A
# B9: Id_ii_S2_P5E.2_K5.1_C5.2_[T-1C]_H5.1_A5.1_F5.1_T5.2_[A12C] (ssRNA)
# RNA: B1 RNA with A28C, U41C
# B10: Id_ii_S2_P5E.2_K5.1_C5.2_[T-1A]_H5.1_A5.1_F5.1_T5.2_[A12T] (ssRNA)
# RNA: B1 RNA with A28C, C29A
# B11: Id_ii_S2_P5E.2_K5.1_C5.2_[C-2A]_[T-1A]_H5.1_A5.1_F5.1_T5.2_[T11A]_[A12T] (ssRNA)
# RNA: B1 RNA with C29A, U40A
# B12: Id_ii_S2_P5E.2_K5.1_C5.2_[T-1C]_H5.1_A5.1_F5.1_T5.2_[T11A]_[A12C] (ssRNA)
# RNA: B1 RNA with A28C, U40A, U41C
# B13: Id_ii_S2_P5E.2_K5.1_C5.2_[C-2A]_[T-1G]_H5.1_A5.1_F5.1_T5.2_[T11A]_[A12T] (ssRNA)
# RNA: B1 RNA with C29G, U40A
# B14: Id_ii_S2_P5E.2_K5.1_C5.2_H5.1_A5.1_F5.1_T5.2_[T11A] (ssRNA)
# RNA: B1 RNA with A28C, C29U, U40A, U41A
# B15: Id_ii_S2_P5E.2_K5.1_C5.2_[C-2T]_H5.1_A5.1_F5.1_T5.2_[T11A]_[A12T] (ssRNA)
# RNA: B1 RNA with A28U, C29U, U40A
# B16: Id_ii_S2_P5E.2_K5.1_C5.2_[C-2T]_H5.1_A5.1_F5.1_T5.2_[T11G]_[A12T] (ssRNA)
# RNA: B1 RNA with A28U, C29U, U40G
# B17: Id_ii_S2_P5E.2_K5.1_C5.2_[C-2A]_[T-1C]_H5.1_A5.1_F5.1_T5.2_[T11A]_[A12T] (ssRNA)
# RNA: B1 RNA with U40A
# B18: Id_ii_S2_P5E.2_K5.1_C5.2_[T-1C]_H5.1_A5.1_F5.1_T5.2_[T11A] (ssRNA)
# RNA: B1 RNA with A28C, U40A, U41A
# B19: Id_ii_S2_P5E.2_K5.1_C5.2_[T-1G]_H5.1_A5.1_F5.1_T5.2_[A12T] (ssRNA)
# RNA: B1 RNA with A28C, C29G
# B20: Id_ii_S2_P5E.2_K5.1_C5.2_[T-1G]_H5.1_A5.1_F5.1_T5.2_[T11A] (ssRNA)
# RNA: B1 RNA with A28C, C29G, U40A, U41A
# B21: Id_ii_S2_P5E.2_K5.1_C5.2_[C-2A]_H5.1_A5.1_F5.1_T5.2_[A12G] (ssRNA)
# RNA: B1 RNA with C29U, U41G
# B22: Id_ii_S2_P5E.2_K5.1_C5.2_[C-2A]_H5.1_A5.1_F5.1_T5.2_[A12T] (ssRNA)
# RNA: B1 RNA with C29U
# B23: Id_ii_S2_P5E.3_K5.2_C5.2_[C-2G]_[T-1C]_H5.2_A5.1_F5.1_T5.2_[T11C]_[A12G] (ssRNA)
# RNA: B1 RNA with A28G, G31A, U40C, U41G
# Target: T1, PUF4 RNA-binding domain
# Assay: Mg; RNA-MaP; 20 mM Na-HEPES pH 7.4, 30 mM KOAc, 0.75 mM MgCl2, 0.1% Tween-20, 5% glycerol, 0.1 mg/mL BSA, 2 mM DTT; 25 C; 0.0125-409.6 nM protein
# Details: tags: N-His6-TEV cleaved; C-SNAP kept, Cy3B-labelled; label: tethered on chip by stalled RNA polymerase
row,Binder,Kd
1,B1,2.49 nM
2,B2,6.1 nM
3,B3,5.79 nM
4,B4,1.71 nM
5,B5,2.68 nM
6,B6,1.86 nM
7,B7,31.6 nM
8,B8,1.44 nM
9,B9,1.5 nM
10,B10,3.27 nM
11,B11,20.4 nM
12,B12,3.51 nM
13,B13,7.45 nM
14,B14,3.44 nM
15,B15,3.17 nM
16,B16,3.67 nM
17,B17,3.61 nM
18,B18,3.1 nM
19,B19,1.54 nM
20,B20,3.97 nM
21,B21,5.06 nM
22,B22,2.99 nM
23,B23,635 nM
24,UCUCUUUGUAUCAAUAUCUCUU (ssRNA) [Ib_S1_P5E.1_K5.1_C5.1_H5.1_A5.1_[T6C]_F5.1_[T8A]_T5.1],13.4 nM
25,UCUCUUUGUAUGACUAUCUCUU (ssRNA) [Ib_S1_P5E.1_K5.1_C5.1_H5.1_A5.1_[T6G]_F5.1_[T8C]_T5.1],31.2 nM
26,UCUCUUUGUAUAACUAUCUCUU (ssRNA) [Ic_S1_P5E.1_K5.1_C5.1_H5.1_A5.1_[T6A]_F5.1_[T8C]_T5.1],8.58 nM
27,UCUCUUUGUAUAAAUAUCUCUU (ssRNA) [Ib_S1_P5E.1_K5.1_C5.1_H5.1_A5.1_[T6A]_F5.1_[T8A]_T5.1],11.7 nM
28,UCUCUUUGUAUCACUAUCUCUU (ssRNA) [Ib_S1_P5E.1_K5.1_C5.1_H5.1_A5.1_[T6C]_F5.1_[T8C]_T5.1],18 nM
29,UCUCUUUGUGUUAUUAUCUCUU (ssRNA) [Ia_S1_P5E.1_K5.1_C5.1_H5.1_[A4G]_A5.1_F5.1_T5.1],30.7 nM
